Paper PMC3154423

Assays:
Assay in all cases: ITC
[1] = target: Jun bZIP K273A;Fos bZIP R158A (human;human, UniProt P05412;P01100 252-315;137-200, K273A|R158A)
Jun-Jun bZIP K258A = Jun-Jun bZIP K258A (human, UniProt P05412 252-315, K258A)
[2] = target: Jun bZIP R272A;Fos bZIP R158A (human;human, UniProt P05412;P01100 252-315;137-200, R272A|R158A)
[3] = target: Jun bZIP K273A;Fos bZIP R157A (human;human, UniProt P05412;P01100 252-315;137-200, K273A|R157A)
[4] = target: Jun bZIP R270A;Fos bZIP K153A (human;human, UniProt P05412;P01100 252-315;137-200, R270A|K153A)
Sequence of Jun bZIP R270A;Fos bZIP K153A (P05412 252-315 R270A, chain 1 of 2): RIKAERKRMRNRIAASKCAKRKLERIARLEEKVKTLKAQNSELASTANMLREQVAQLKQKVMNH
Sequence of Jun bZIP R270A;Fos bZIP K153A (P01100 137-200 K153A, chain 2 of 2): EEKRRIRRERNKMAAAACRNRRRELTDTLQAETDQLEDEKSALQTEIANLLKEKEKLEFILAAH

Jun-Jun bZIP WT = Jun-Jun bZIP WT (human, UniProt P05412 252-315)
Sequence of Jun-Jun bZIP WT (P05412 252-315): as the sequence (P05412 252-315 R270A, chain 1 of 2) above, with A19R counted along it

[5] = target: Jun bZIP R263A;Fos bZIP R157A (human;human, UniProt P05412;P01100 252-315;137-200, R263A|R157A)
Sequence of Jun bZIP R263A;Fos bZIP R157A (P05412 252-315 R263A, chain 1 of 2): as the sequence (P05412 252-315 R270A, chain 1 of 2) above, with R12A, A19R counted along it
Sequence of Jun bZIP R263A;Fos bZIP R157A (P01100 137-200 R157A, chain 2 of 2): as the sequence (P01100 137-200 K153A, chain 2 of 2) above, with A17K, R21A counted along it

[6] = target: Jun bZIP R259A;Fos bZIP R157A (human;human, UniProt P05412;P01100 252-315;137-200, R259A|R157A)
Sequence of Jun bZIP R259A;Fos bZIP R157A (P05412 252-315 R259A, chain 1 of 2): as the sequence (P05412 252-315 R270A, chain 1 of 2) above, with R8A, A19R counted along it
Sequence of Jun bZIP R259A;Fos bZIP R157A (P01100 137-200 R157A, chain 2 of 2): as the sequence (P01100 137-200 K153A, chain 2 of 2) above, with A17K, R21A counted along it

Jun-Jun bZIP R272A = Jun-Jun bZIP R272A (human, UniProt P05412 252-315, R272A)
Sequence of Jun-Jun bZIP R272A (P05412 252-315 R272A): as the sequence (P05412 252-315 R270A, chain 1 of 2) above, with A19R, R21A counted along it

[7] = target: Jun bZIP K268A;Fos bZIP R143A (human;human, UniProt P05412;P01100 252-315;137-200, K268A|R143A)
Sequence of Jun bZIP K268A;Fos bZIP R143A (P05412 252-315 K268A, chain 1 of 2): as the sequence (P05412 252-315 R270A, chain 1 of 2) above, with K17A, A19R counted along it
Sequence of Jun bZIP K268A;Fos bZIP R143A (P01100 137-200 R143A, chain 2 of 2): as the sequence (P01100 137-200 K153A, chain 2 of 2) above, with R7A, A17K counted along it

[8] = target: Jun bZIP R261A;Fos bZIP R143A (human;human, UniProt P05412;P01100 252-315;137-200, R261A|R143A)
Sequence of Jun bZIP R261A;Fos bZIP R143A (P05412 252-315 R261A, chain 1 of 2): as the sequence (P05412 252-315 R270A, chain 1 of 2) above, with R10A, A19R counted along it
Sequence of Jun bZIP R261A;Fos bZIP R143A (P01100 137-200 R143A, chain 2 of 2): as the sequence (P01100 137-200 K153A, chain 2 of 2) above, with R7A, A17K counted along it

[9] = target: Jun bZIP R263A;Fos bZIP R146A (human;human, UniProt P05412;P01100 252-315;137-200, R263A|R146A)
Sequence of Jun bZIP R263A;Fos bZIP R146A (P05412 252-315 R263A, chain 1 of 2): as the sequence (P05412 252-315 R270A, chain 1 of 2) above, with R12A, A19R counted along it
Sequence of Jun bZIP R263A;Fos bZIP R146A (P01100 137-200 R146A, chain 2 of 2): as the sequence (P01100 137-200 K153A, chain 2 of 2) above, with R10A, A17K counted along it

[10] = target: Jun bZIP R261A;Fos bZIP R155A (human;human, UniProt P05412;P01100 252-315;137-200, R261A|R155A)
Sequence of Jun bZIP R261A;Fos bZIP R155A (P05412 252-315 R261A, chain 1 of 2): as the sequence (P05412 252-315 R270A, chain 1 of 2) above, with R10A, A19R counted along it
Sequence of Jun bZIP R261A;Fos bZIP R155A (P01100 137-200 R155A, chain 2 of 2): as the sequence (P01100 137-200 K153A, chain 2 of 2) above, with A17K, R19A counted along it

[11] = target: Jun bZIP R272A;Fos bZIP R155A (human;human, UniProt P05412;P01100 252-315;137-200, R272A|R155A)
Sequence of Jun bZIP R272A;Fos bZIP R155A (P05412 252-315 R272A, chain 1 of 2): as the sequence (P05412 252-315 R270A, chain 1 of 2) above, with A19R, R21A counted along it
Sequence of Jun bZIP R272A;Fos bZIP R155A (P01100 137-200 R155A, chain 2 of 2): as the sequence (P01100 137-200 K153A, chain 2 of 2) above, with A17K, R19A counted along it

[12] = target: Jun bZIP R270A;Fos bZIP K148A (human;human, UniProt P05412;P01100 252-315;137-200, R270A|K148A)
Sequence of Jun bZIP R270A;Fos bZIP K148A (P05412 252-315 R270A, chain 1 of 2): as the sequence (P05412 252-315 R270A, chain 1 of 2) above
Sequence of Jun bZIP R270A;Fos bZIP K148A (P01100 137-200 K148A, chain 2 of 2): as the sequence (P01100 137-200 K153A, chain 2 of 2) above, with K12A, A17K counted along it

[13] = target: Jun bZIP K258A;Fos bZIP R144A (human;human, UniProt P05412;P01100 252-315;137-200, K258A|R144A)
Sequence of Jun bZIP K258A;Fos bZIP R144A (P05412 252-315 K258A, chain 1 of 2): as the sequence (P05412 252-315 R270A, chain 1 of 2) above, with K7A, A19R counted along it
Sequence of Jun bZIP K258A;Fos bZIP R144A (P01100 137-200 R144A, chain 2 of 2): as the sequence (P01100 137-200 K153A, chain 2 of 2) above, with R8A, A17K counted along it

[14] = target: Jun bZIP K273A;Fos bZIP R146A (human;human, UniProt P05412;P01100 252-315;137-200, K273A|R146A)
Sequence of Jun bZIP K273A;Fos bZIP R146A (P05412 252-315 K273A, chain 1 of 2): as the sequence (P05412 252-315 R270A, chain 1 of 2) above, with A19R, K22A counted along it
Sequence of Jun bZIP K273A;Fos bZIP R146A (P01100 137-200 R146A, chain 2 of 2): as the sequence (P01100 137-200 K153A, chain 2 of 2) above, with R10A, A17K counted along it

Sequence of Jun bZIP R272A;Fos bZIP R158A (P05412 252-315 R272A, chain 1 of 2): as the sequence (P05412 252-315 R270A, chain 1 of 2) above, with A19R, R21A counted along it
Sequence of Jun bZIP R272A;Fos bZIP R158A (P01100 137-200 R158A, chain 2 of 2): as the sequence (P01100 137-200 K153A, chain 2 of 2) above, with A17K, R22A counted along it
Sequence of Jun-Jun bZIP K258A (P05412 252-315 K258A): as the sequence (P05412 252-315 R270A, chain 1 of 2) above, with K7A, A19R counted along it
Sequence of Jun bZIP K273A;Fos bZIP R158A (P05412 252-315 K273A, chain 1 of 2): as the sequence (P05412 252-315 R270A, chain 1 of 2) above, with A19R, K22A counted along it
Sequence of Jun bZIP K273A;Fos bZIP R158A (P01100 137-200 R158A, chain 2 of 2): as the sequence (P01100 137-200 K153A, chain 2 of 2) above, with A17K, R22A counted along it
Sequence of Jun bZIP K273A;Fos bZIP R157A (P05412 252-315 K273A, chain 1 of 2): as the sequence (P05412 252-315 R270A, chain 1 of 2) above, with A19R, K22A counted along it
Sequence of Jun bZIP K273A;Fos bZIP R157A (P01100 137-200 R157A, chain 2 of 2): as the sequence (P01100 137-200 K153A, chain 2 of 2) above, with A17K, R21A counted along it

B1: TRE duplex 15-mer (dsDNA)
DNA 1: CGCGTGACTCACCCC
DNA 2: GGGGTGAGTCACGCG
Question: With B1 as the binder, how does the Kd [1] read?
Answer: 680 ± 30 nM

Question: What about the Kd (Jun-Jun bZIP K258A) of the same binder?
Answer: 4.43 ± 0.19 µM

Question: What about the Kd [2] of the same binder?
Answer: 620 ± 40 nM

Question: And the Kd [3]?
Answer: 1300 ± 80 nM

Question: What about the Kd [4] of the same binder?
Answer: 1610 ± 150 nM

Question: And the Kd (Jun-Jun bZIP WT)?
Answer: 190 ± 20 nM

Question: What about the Kd [5] of the same binder?
Answer: 1740 ± 30 nM

Question: What about the Kd [6] of the same binder?
Answer: 3.05 ± 0.12 µM

Question: And the Kd (Jun-Jun bZIP R272A)?
Answer: 490 ± 40 nM

Question: What about the Kd [7] of the same binder?
Answer: 720 ± 10 nM

Question: And the Kd [8]?
Answer: 1030 ± 50 nM

Question: What about the Kd [9] of the same binder?
Answer: 1040 ± 40 nM

Question: What about the Kd [10] of the same binder?
Answer: 2460 ± 30 nM

Question: And the Kd [11]?
Answer: 2670 ± 130 nM

Question: And the Kd [12]?
Answer: 1900 ± 120 nM

Question: What about the Kd [13] of the same binder?
Answer: 2780 ± 50 nM

Question: What about the Kd [14] of the same binder?
Answer: 680 ± 10 nM
